Results on one sequence are retold here after US20260274922A1, “SYNTHETIC ESTROGEN RECEPTOR (ER)-DERIVED PEPTIDE” (THE TEXAS A&M UNIVERSITY SYSTEM, priority 2023, published 2026).

Where no end group is shown, it is not given here. The star is where a group is joined. FITC = O=C1OC2(c3ccc(O)cc3Oc3cc(O)ccc32)c2ccc(NC(=S)*)cc21

Assay [1] addresses T1, IRS1 protein domains (Homo sapiens, UniProt P35568).
T1 construct: expressed in transfected cells; host or cells: HEK293
T1 sequence (P35568 1-300): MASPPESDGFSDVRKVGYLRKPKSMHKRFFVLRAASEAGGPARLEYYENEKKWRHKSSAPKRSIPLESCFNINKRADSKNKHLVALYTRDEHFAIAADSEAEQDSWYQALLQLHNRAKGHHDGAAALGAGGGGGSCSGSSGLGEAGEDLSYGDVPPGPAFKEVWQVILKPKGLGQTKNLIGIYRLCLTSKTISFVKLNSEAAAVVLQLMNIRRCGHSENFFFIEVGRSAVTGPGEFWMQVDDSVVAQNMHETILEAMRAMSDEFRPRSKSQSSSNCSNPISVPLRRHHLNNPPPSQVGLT
Nature of the assay: AF1 peptide and IRS1 protein interaction (co-immunoprecipitation, FITC signal). It is filed as binding. The note with it: HEK293 cells, 10 μM FITC-labelled peptide 3 h. The protocol:
AF1 peptide and IRS1 protein interaction. HEK293 cells were transfected with Flag-IRS1 or Flag-IRS1 truncated domains using lipofectamine 3000 for 30 h, followed by treatment of 10 μM control and AF1 peptides labelled with FITC fluorescence for 3 h. After 10 μM MG132 treatment for 1 h, cell protein was extracted, and Flag-labelled proteins were immunoprecipitated. The intensity of control and AF1 peptide was calculated through measuring FITC fluorescence signal with multiplex reader. The results were normalized using IgG group.

In assay [2] the target is T2, IRS1 (Mus musculus, UniProt P35569).
T2 construct: increased IRS1 protein levels by 50% (p<0.05) in WT primary hepatocytes; endogenous in cells; host or cells: primary mouse hepatocytes (C57BL/6J background; WT, ERα F/F or ERα LivKO)
T2 sequence (P35569 1-1233): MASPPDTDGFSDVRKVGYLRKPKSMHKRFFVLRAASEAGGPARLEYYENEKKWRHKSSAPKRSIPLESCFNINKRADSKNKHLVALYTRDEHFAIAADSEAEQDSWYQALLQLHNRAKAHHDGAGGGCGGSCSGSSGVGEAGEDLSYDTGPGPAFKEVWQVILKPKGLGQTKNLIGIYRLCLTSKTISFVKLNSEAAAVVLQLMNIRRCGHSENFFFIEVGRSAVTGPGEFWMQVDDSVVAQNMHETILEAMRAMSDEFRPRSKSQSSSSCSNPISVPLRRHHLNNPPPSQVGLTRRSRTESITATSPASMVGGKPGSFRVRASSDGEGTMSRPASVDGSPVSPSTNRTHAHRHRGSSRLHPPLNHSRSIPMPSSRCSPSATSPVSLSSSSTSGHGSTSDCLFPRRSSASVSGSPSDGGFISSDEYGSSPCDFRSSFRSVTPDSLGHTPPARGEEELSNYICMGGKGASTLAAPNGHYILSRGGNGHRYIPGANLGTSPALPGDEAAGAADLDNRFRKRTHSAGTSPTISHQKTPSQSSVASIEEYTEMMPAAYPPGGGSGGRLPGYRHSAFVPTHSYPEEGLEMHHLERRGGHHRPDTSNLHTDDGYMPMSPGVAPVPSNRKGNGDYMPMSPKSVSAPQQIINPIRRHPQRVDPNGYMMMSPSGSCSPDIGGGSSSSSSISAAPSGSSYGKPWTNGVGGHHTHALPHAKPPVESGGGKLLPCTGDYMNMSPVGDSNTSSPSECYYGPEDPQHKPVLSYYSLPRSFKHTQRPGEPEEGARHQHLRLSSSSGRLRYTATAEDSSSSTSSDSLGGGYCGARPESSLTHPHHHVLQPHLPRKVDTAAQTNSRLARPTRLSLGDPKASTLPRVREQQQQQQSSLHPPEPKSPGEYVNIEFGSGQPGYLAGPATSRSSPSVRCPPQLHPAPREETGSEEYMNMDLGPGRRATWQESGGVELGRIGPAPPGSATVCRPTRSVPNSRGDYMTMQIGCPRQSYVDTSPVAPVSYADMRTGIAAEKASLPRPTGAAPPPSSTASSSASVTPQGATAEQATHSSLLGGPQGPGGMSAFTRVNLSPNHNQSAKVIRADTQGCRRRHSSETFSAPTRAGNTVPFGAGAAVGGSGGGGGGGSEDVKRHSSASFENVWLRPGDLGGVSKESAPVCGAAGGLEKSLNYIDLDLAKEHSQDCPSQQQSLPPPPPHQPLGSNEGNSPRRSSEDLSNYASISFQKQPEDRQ
Nature of the assay: Effect of AF1 peptide on IRS1 phosphorylation at S302 in primary mouse hepatocytes (Western blot). It is filed as cell-based. The following applies: WT primary hepatocytes. The protocol:
Primary hepatocytes isolation and cell culture. Primary hepatocytes were isolated. Male mice at age of 8-12 weeks were infused with a perfusion buffer A (calcium and magnesium-free HBSS supplemented with 10 mM HEPES, […], 1 mM glucose, and 1% penicillin-streptomycin, pH 7.4) through portal vein for 6-8 min. Then perfusion buffer A was changed to buffer B (calcium and magnesium-free HBSS supplemented with 10 mM HEPES, 1 mM CaCl2), 1 mM glucose, 1% penicillin-streptomycin, and 0.5 mg/mL collagenase II, pH 7.4). […] Liver cells were suspended and passed through a 70 μm cell strainer, followed by centrifuge at 1700 rpm for 2 min. Pellets were resuspended with Percoll at final concentration of 36% and centrifuged at 1800 rpm for 6 min. The hepatocyte pellet was washed and suspended with DMEM supplemented with 10% FBS and 1% penicillin-streptomycin in collagen-coated plates. The HepG2 cell line was purchased from Abcam and cultured with DMEM medium supplemented with 10% FBS and 1% penicillin-streptomycin in collagen-coated plates. The human embryo kidney (HEK) 293 cell line was purchased from Sigma and cultured with DMEM medium supplemented with 10% FBS and 1% penicillin-streptomycin. FBS-free DMEM medium was used to culture cells during the experiments.
Co-immunoprecipitation and Western blotting analysis. […] Protein bands were detected using a ChemiDoc image system.

In the case of “YGRKKRRQRRRTKASGMALLHEPLNRPQLKIPLERDSSKPAVYNY ({FITC}-YGRKKRRQRRRTKASGMALLHEPLNRPQLKIPLERDSSKPAVYNY) [AF1 peptide]”, the “interaction with IRS1 protein domains” value in assay [1] is “interacted with the IRS1 1-300 domain”. For the same sequence, the “decrease in pIRS1-S302” value in assay [2] worked out at 75%. The “increase in IRS1 protein levels” value in assay [2] (FIG. 6G) turned out to be 50%.
